Laboratory results taken from patent publication US20260167720A1 (Amgen, published 2026).

B1: MSLN-CDH3 T-cell engager molecule 3 (example to FIG. 2A) (bispecific antibody)
chain 1: not shown
chain 2: EVQLVESGGGLVQPGGSLKLSCAASGFTFNKYAMNWVRQAPGKGMEWVARIRSKYNNYATYYADAVKDRFTISRDDSKNTLYLQMNNLKTEDTAVYYCVRAGNFGSSYISYFAYWGQGTLVTVSSGGGGQGGGGQGGGGQQTVVTQEPSLTVSPGGTVTITCGSSTGAVTSGNYPNWIQKKPGQAPRGLIGGTKFLAPGTPARFSGSLEGGKAALTLSGVQPEDEAEYYCVLYYSNRWVFGSGTKLTVLGGGGQGGGGQGGGGQDKTHTCPPCPAPELLGGPSVFLFPPKPKDTLMISRTPEVTCVVVDVSHEDPEVKFNWYVDGVEVHNAKTKPCEEQYGSTYRCVSVLTVLHQDWLNGKEYKCKVSNKALPAPIEKTISKAKGQPREPQVYTLPPSRKEMTKNQVSLTCLVKGFYPSDIAVEWESNGQPENNYKTTPPVLKSDGSFFLYSKLTVDKSRWQQGNVFSCSVMHEALHNHYTQKSLSLSPGKGGGGQGGGGQGGGGQEVQLVESGGGLVQPGGSLKLSCAASGFTFNKYAMNWVRQAPGKGMEWVARIRSKYNNYATYYADAVKDRFTISRDDSKNTLYLQMNNLKTEDTAVYYCVRAGNFGSSYISYFAYWGQGTLVTVSSGGGGQGGGGQGGGGQQTVVTQEPSLTVSPGGTVTITCGSSTGAVTSGNYPNWIQKKPGQAPRGLIGGTKFLAPGTPARFSGSLEGGKAALTLSGVQPEDEAEYYCVLYYSNRWVFGSGTKLTVL
B2: MSLN-CDH3 T-cell engager molecule 2 (heteroFc multichain) (bispecific antibody)
chain 1: QVQLVQSGAEVKKPGASVKVSCKASGYTFTNYWMNWVRQAPGQCLEWMGNIAYGVAGTNYNQKFQGRVTMTVDTSSSTAYMELSRLRSDDTAVYYCATRYFYVMDYWGQGTLVTVSSGGGGQGGGGQGGGGQEIQMTQSPSSLSASVGDRVTITCRASQDISNYLNWYQQKPGKVPKLLIYYTSRLHSGVPSRFSGSGSGTDFTLTISSLQPEDVATYYCVQYAQFPLTFGCGTKVEIKSGGGGQEVQLVESGGGLVQPGGSLKLSCAASGFTFNKYAMNWVRQAPGKGMEWVARIRSKYNNYATYYADAVKDRFTISRDDSKNTLYLQMNNLKTEDTAVYYCVRAGNFGSSYISYFAYWGQGTLVTVSSGGGGQGGGGQGGGGQQTVVTQEPSLTVSPGGTVTITCGSSTGAVTSGNYPNWIQKKPGQAPRGLIGGTKFLAPGTPARFSGSLEGGKAALTLSGVQPEDEAEYYCVLYYSNRWVFGSGTKLTVLGGGGCPPCPAPELLGGPSVFLFPPKPKDTLMISRTPEVTCVVVDVSHEDPEVKFNWYVDGVEVHNAKTKPCEEQYGSTYRCVSVLTVLHQDWLNGKEYKCKVSNKALPAPIEKTISKAKGQPREPQVYTLPPSREEMTKNQVSLTCLVKGFYPSDIAVEWESNGQPENNYDTTPPVLDSDGSFFLYSDLTVDKSRWQQGNVFSCSVMHEALHNHYTQDSLSLSPGK
chain 2: CPPCPAPELLGGPSVFLFPPKPKDTLMISRTPEVTCVVVDVSHEDPEVKFNWYVDGVEVHNAKTKPCEEQYGSTYRCVSVLTVLHQDWLNGKEYKCKVSNKALPAPIEKTISKAKGQPREPQVYTLPPSRKEMTKNQVSLTCLVKGFYPSDIAVEWESNGQPENNYKTTPPVLKSDGSFFLYSKLTVDKSRWQQGNVFSCSVMHEALHNHYTQKSLSLSPGKGGGGQVQLQESGPGLVKPSETLSLTCTVSGGSISSSSYFWGWIRQPPGKCLEWIGNIYYSGSSNYNPSLKSRVTISVDTSKNQFSLKLSSVTAADTAVYYCARLPRGDRDAFDIWGQGTMVTVSSGGGGQGGGGQGGGGQEIVMTQSPSSLSASVGDRVTITCRASQGISNYLAWYQQKPGKVPKLLIYAASTLQSGVPSRFSGSGSGTDFTLTISSLQPEDFATYYCQQSYSTPFTFGCGTKVEIKSGGGGQEVQLVESGGGLVQPGGSLKLSCAASGFTFNKYAMNWVRQAPGKGMEWVARIRSKYNNYATYYADAVKDRFTISRDDSKNTLYLQMNNLKTEDTAVYYCVRAGNFGSSYISYFAYWGQGTLVTVSSGGGGQGGGGQGGGGQQTVVTQEPSLTVSPGGTVTITCGSSTGAVTSGNYPNWIQKKPGQAPRGLIGGTKFLAPGTPARFSGSLEGGKAALTLSGVQPEDEAEYYCVLYYSNRWVFGSGTKLTVL
B3: MSLN-CDH3 T-cell engager molecule 4 (example to FIG. 2B) (bispecific antibody)
chain 1: not shown
chain 2: EVQLVESGGGLVQPGGSLKLSCAASGFTFNKYAMNWVRQAPGKGMEWVARIRSKYNNYATYYADAVKDRFTISRDDSKNTLYLQMNNLKTEDTAVYYCVRAGNFGSSYISYFAYWGQGTLVTVSSGGGGQGGGGQGGGGQQTVVTQEPSLTVSPGGTVTITCGSSTGAVTSGNYPNWIQKKPGQAPRGLIGGTKFLAPGTPARFSGSLEGGKAALTLSGVQPEDEAEYYCVLYYSNRWVFGSGTKLTVLGGGGQGGGGQGGGGQDKTHTCPPCPAPELLGGPSVFLFPPKPKDTLMISRTPEVTCVVVDVSHEDPEVKFNWYVDGVEVHNAKTKPCEEQYGSTYRCVSVLTVLHQDWLNGKEYKCKVSNKALPAPIEKTISKAKGQPREPQVYTLPPSRKEMTKNQVSLTCLVKGFYPSDIAVEWESNGQPENNYKTTPPVLKSDGSFFLYSKLTVDKSRWQQGNVFSCSVMHEALHNHYTQKSLSLSPGKGGGGQGGGGQGGGGQQVQLQESGPGLVKPSETLSLTCTVSGGSISSSSYFWGWIRQPPGKCLEWIGNIYYSGSSNYNPSLKSRVTISVDTSKNQFSLKLSSVTAADTAVYYCARLPRGDRDAFDIWGQGTMVTVSSGGGGQGGGGQGGGGQEIVMTQSPSSLSASVGDRVTITCRASQGISNYLAWYQQKPGKVPKLLIYAASTLQSGVPSRFSGSGSGTDFTLTISSLQPEDFATYYCQQSYSTPFTFGCGTKVEIK
B4: MSLN-CDH3 T-cell engager molecule 1 (scFc single chain) (bispecific antibody)
chain: QVQLVQSGAEVKKPGASVKVSCKASGYTFTNYWMNWVRQAPGQCLEWMGNIAYGVAGTNYNQKFQGRVTMTVDTSSSTAYMELSRLRSDDTAVYYCATRYFYVMDYWGQGTLVTVSSGGGGQGGGGQGGGGQEIQMTQSPSSLSASVGDRVTITCRASQDISNYLNWYQQKPGKVPKLLIYYTSRLHSGVPSRFSGSGSGTDFTLTISSLQPEDVATYYCVQYAQFPLTFGCGTKVEIKSGGGGQEVQLVESGGGLVQPGGSLKLSCAASGFTFNKYAMNWVRQAPGKGMEWVARIRSKYNNYATYYADAVKDRFTISRDDSKNTLYLQMNNLKTEDTAVYYCVRAGNFGSSYISYFAYWGQGTLVTVSSGGGGQGGGGQGGGGQQTVVTQEPSLTVSPGGTVTITCGSSTGAVTSGNYPNWIQKKPGQAPRGLIGGTKFLAPGTPARFSGSLEGGKAALTLSGVQPEDEAEYYCVLYYSNRWVFGSGTKLTVLGGGGCPPCPAPELLGGPSVFLFPPKPKDTLMISRTPEVTCVVVDVSHEEPEVKFNWYVDGVEVHNAKTKPCEEQYGSTYRCVSVLTVLHQDWLNGKEYKCKVSNKALPAPIEKTISKAKGQPREPQVYTLPPSREEMTKNQVSLTCLVKGFYPSDIAVEWESNGQPENNYKTTPPVLDSDGSFFLYSKLTVDKSRWQQGNVFSCSVMHEALHNHYTQKSLSLSPGKGGGGQGGGGQGGGGQGGGGQGGGGQGGGGQCPPCPAPELLGGPSVFLFPPKPKDTLMISRTPEVTCVVVDVSHEEPEVKFNWYVDGVEVHNAKTKPCEEQYGSTYRCVSVLTVLHQDWLNGKEYKCKVSNKALPAPIEKTISKAKGQPREPQVYTLPPSREEMTKNQVSLTCLVKGFYPSDIAVEWESNGQPENNYKTTPPVLDSDGSFFLYSKLTVDKSRWQQGNVFSCSVMHEALHNHYTQKSLSLSPGKGGGGQVQLQESGPGLVKPSETLSLTCTVSGGSISSSSYFWGWIRQPPGKCLEWIGNIYYSGSSNYNPSLKSRVTISVDTSKNQFSLKLSSVTAADTAVYYCARLPRGDRDAFDIWGQGTMVTVSSGGGGQGGGGQGGGGQEIVMTQSPSSLSASVGDRVTITCRASQGISNYLAWYQQKPGKVPKLLIYAASTLQSGVPSRFSGSGSGTDFTLTISSLQPEDFATYYCQQSYSTPFTFGCGTKVEIKSGGGGQEVQLVESGGGLVQPGGSLKLSCAASGFTFNKYAMNWVRQAPGKGMEWVARIRSKYNNYATYYADAVKDRFTISRDDSKNTLYLQMNNLKTEDTAVYYCVRAGNFGSSYISYFAYWGQGTLVTVSSGGGGQGGGGQGGGGQQTVVTQEPSLTVSPGGTVTITCGSSTGAVTSGNYPNWIQKKPGQAPRGLIGGTKFLAPGTPARFSGSLEGGKAALTLSGVQPEDEAEYYCVLYYSNRWVFGSGTKLTVL

target: T1, CDH3 (Cadherin-3, P-Cadherin) on HCT116 or GSU cells (UniProt P22223 108-829, limits assumed); assay: cell-based or functional assay

| EC50 GSU KO MSLN [pM]; TDCC, MSLN knocked out, CDH3 left | EC50 GSU WT [pM]; TDCC, cells double positive for CDH3 and MSLN | Binder |
| --- | --- | --- |
| 55.3 pM | 0.073 pM | B1 |
| 349 pM | 0.039 pM | B2 |
| 36.8 pM | 0.098 pM | B3 |
| 103 pM | 0.013 pM | B4 |

target: T2, MSLN (Mesothelin) on HCT116 or GSU cells (UniProt Q13421 37-598, limits assumed); assay: cell-based or functional assay

| EC50 GSU KO CDH3 [pM]; TDCC, CDH3 knocked out, MSLN left | EC50 GSU WT [pM]; TDCC, cells double positive for CDH3 and MSLN | Binder |
| --- | --- | --- |
| 7.5 pM | 0.073 pM | B1 |
| 2.5 pM | 0.039 pM | B2 |
| 2.89 pM | 0.098 pM | B3 |
| 0.47 pM | 0.013 pM | B4 |

target: T1, CDH3 (Cadherin-3, P-Cadherin) on HCT116 …; assay: cell-based or functional assay; remark: another data set of the same source

| EC50 HCT116 KO MSLN [pM]; TDCC, MSLN knocked out, CDH3 left | EC50 HCT116 WT [pM]; TDCC, cells double positive for CDH3 and MSLN | Binder |
| --- | --- | --- |
| 0.38 pM | 0.005 pM | B1 |
| 1.77 pM | 0.013 pM | B2 |
| 0.62 pM | 0.027 pM | B3 |
| 1.08 pM | 0.003 pM | B4 |

target: T2, MSLN (Mesothelin) on HCT116 or GSU cells; assay: cell-based or functional assay; remark: another data set of the same source

| EC50 HCT116 KO CDH3 [pM]; TDCC, CDH3 knocked out, MSLN left | EC50 HCT116 WT [pM]; TDCC, cells double positive for CDH3 and MSLN | Binder |
| --- | --- | --- |
| 3.19 pM | 0.005 pM | B1 |
| 3.48 pM | 0.013 pM | B2 |
| 3.5 pM | 0.027 pM | B3 |
| 1.76 pM | 0.003 pM | B4 |
